This note sets out measurements from paper PMC6773690, “Scribble co-operatively binds multiple α1D-adrenergic receptor C-terminal PDZ ligands” (Scientific Reports, 2019).

Ends that are not written are not given here. BG‑782 = not defined here

The target in experiment [1] is biotin-labeled peptide containing the last 20 amino acids of the α1D-adrenergic receptor C-terminus (human) (UniProt P25100). Nature of the experiment: BLI; Octet Red 96; 50 nM biotin-labeled α1D-CT peptide immobilised on streptavidin probes, then biocytin; serial dilutions of purified PDZ proteins as analytes until steady state; 20 mM Tris-HCl pH 8.0, 200 mM NaCl, 0.1% bovine serum albumin.

The target in experiment [2] is GST-SCRIB containing all 4 PDZ domains (WT). Briefly: BLI; reverse BLI: GST-SCRIB immobilised on anti-GST probes, serial dilutions of biotin-labeled α1D-CT as analyte; 20 mM Tris-HCl pH 8.0, 200 mM NaCl, 0.1% bovine serum albumin. On the technique in general: BLI is a label-free optical method that tracks binding on a fibre tip over time.
The target in the next experiment is T1, GST-SCRIB PDZ domain 2 (UniProt Q14160 862-950).
T1 construct: scribble (SCRIB), PDZ domain 2 alone; also called SCRIB PDZ2; PDZ2; source: E. coli Rosetta (DE3), purified (glutathione agarose); not shown: GST, N-terminal, kept
T1 sequence (looked up): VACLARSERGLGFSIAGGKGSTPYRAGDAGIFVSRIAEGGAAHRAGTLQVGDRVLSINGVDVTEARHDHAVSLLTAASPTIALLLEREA
Nature of the experiment: BLI; Octet Red 96; 50 nM biotin-labeled α1D-CT peptide immobilised on streptavidin probes, then biocytin; serial dilutions of purified PDZ proteins as analytes until steady state; 20 mM Tris-HCl pH 8.0, 200 mM NaCl, 0.1% bovine serum albumin. As to conditions: both partners purified.

Another experiment concerns the target T2, GST-SCRIB PDZ domain 3 (UniProt Q14160 1004-1093).
T2 construct: scribble (SCRIB), PDZ domain 3 alone; also called SCRIB PDZ3; PDZ3; source: E. coli Rosetta (DE3), purified (glutathione agarose); not shown: GST, N-terminal, kept
T2 sequence (looked up): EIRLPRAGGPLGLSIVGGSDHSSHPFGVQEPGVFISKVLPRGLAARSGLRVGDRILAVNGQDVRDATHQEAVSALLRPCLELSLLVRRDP
Described as above. As to conditions: both partners purified.

Experiment [3] has as its target T3, calcium/calmodulin-dependent serine protein kinase (CASK) PDZ domain (UniProt O14936 489-564).
T3 construct: calcium/calmodulin-dependent serine protein kinase (CASK), PDZ domain; The methods elute GST proteins with glutathione; TEV cleavage is told only for crystallography; source: E. coli Rosetta (DE3), purified (glutathione agarose)
T3 sequence (looked up): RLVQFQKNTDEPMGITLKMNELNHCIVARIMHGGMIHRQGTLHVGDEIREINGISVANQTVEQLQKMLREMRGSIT
The description is as above. As to conditions: both partners purified.

The target in a further experiment is T4, GST-SCRIB PDZ domain 1 (UniProt Q14160 728-815).
T4 construct: scribble (SCRIB), PDZ domain 1 alone; also called SCRIB PDZ1; PDZ1; source: E. coli Rosetta (DE3), purified (glutathione agarose); not shown: GST, N-terminal, kept
Described as above. As to conditions: both partners purified.

Experiment [4] deals with T5, α1-syntrophin (SNTA) PDZ domain (UniProt Q13424 87-170).
T5 construct: α1-syntrophin (SNTA), PDZ domain; The methods elute GST proteins with glutathione; TEV cleavage is told only for crystallography; source: E. coli Rosetta (DE3), purified (glutathione agarose)
T5 sequence (looked up): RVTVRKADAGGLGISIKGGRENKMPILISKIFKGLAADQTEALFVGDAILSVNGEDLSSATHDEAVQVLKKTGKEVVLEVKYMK
The experiment is described as above. As to conditions: both partners purified.

The target of a further experiment is GST-SCRIB PDZ domain 4 (UniProt Q14160 992-1203). Described as above. As to conditions: both partners purified.
For experiment [5], the target named is GST-SCRIB ΔPDZ4 (C-terminal truncation mutant missing PDZ4). Nature of the experiment: pull-down; SNAP GST-pulldown: 1 μM GST-tagged SCRIB proteins on glutathione agarose beads with serial dilutions of BG-782-labeled SNAP-α1D-CT, 1 h at 4 °C; washes 20 mM Tris-HCl pH 8.0, 200 mM NaCl, 0.05% NP-40; PAGE NIR.
Experiment [6] concerns the target GST-SCRIB ΔPDZ34 (C-terminal truncation mutant missing PDZ3 and PDZ4). The experiment is described as above.

In general, Kd refers to the equilibrium constant for the complex coming apart.

T4 sequence (Q14160 728-815): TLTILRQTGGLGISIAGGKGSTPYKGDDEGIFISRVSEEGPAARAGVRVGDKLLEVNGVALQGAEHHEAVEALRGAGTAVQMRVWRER

“GST-SCRIB H1170A (PDZ4 mutation in SCRIB with all 4 PDZ domains) (domain or fragment)” yielded a Kd in experiment [1] of 320 nM. Still for that read-out and setting: under “GST-SCRIB H793A (PDZ1 mutation in SCRIB with all 4 PDZ domains) (domain or fragment)” stands 7340 nM. As to “GST-SCRIB ΔPDZ4 (C-terminal truncation mutant missing PDZ4) (domain or fragment)”, the Kd in experiment [1] was found to be 140 nM. Same read-out and setting: next, “human discs large MAGUK scaffold protein 1 (DLG1) PDZ domains (domain or fragment)”: 790 nM. Same read-out and setting: under “SCRIB PDZ3 and PDZ4 (PDZ34) (domain or fragment)” stands 340 nM.

“GST-SCRIB ΔPDZ34 (C-terminal truncation mutant missing PDZ3 and PDZ4) (domain or fragment)” came in with a Kd in experiment [1] of 160 nM.

“GST-SCRIB containing all 4 PDZ domains (WT) (domain or fragment)” had a Kd in experiment [1] of 70 nM.

B1: biotin-labeled peptide containing the last 20 amino acids of the α1D-adrenergic receptor C-terminus (peptide, UniProt P25100 553-572, looked up)
peptide: GATCQAYELADYSNLRETDI
modifications: also: biotin label (position not given here)
notes: α1D-adrenergic receptor, distal (last) 20 amino acids of the C-terminus; also called α1D-CT; α1D-AR C-terminal PDZ ligand; source: synthetic peptide, bought: BioMatik
B1: the dissociation constant Kd in [2] amounted to 76 nM; with GST-SCRIB PDZ domain 2 it was 14900 nM; in the experiment with GST-SCRIB PDZ domain 3, 44200 nM; in [3], 1150 nM; with GST-SCRIB PDZ domain 1 it was 1930 nM; in experiment [4], 560 nM. The molecule further showed a Kd with GST-SCRIB PDZ domain 4 of 1140 nM.

B2: SNAP-α1D-C terminal domain (SNAP-epitope tag adjacent to the N-terminus of the distal 16 amino acids of the α1D-CT) (peptide)
chain: {BG‑782-SNAP tag}-QAYELADYSNLRETDI
modifications: not fully specified; reading uncertain
Take B2: the maximal binding response, % of SCRIB WT (% of SCRIB WT) in experiment [5] was found to be 48; in experiment [6], 34.
